The values that follow come from patent US12679878B2, “CRF2 receptor agonists and their use in therapy” (SANOFI, priority 2020, dated 2026).

The assay concerns the target rat CRF2R α receptor (rat, UniProt P47866 20-411). The assay is described as follows: cell-based or functional assay.

Starred links: 1 amine or outer side, 2 acyl side, 3 side chain; linkers in the order of their positions; H or OH if unused. Non-standard residues stand in square brackets, D forms with d. Groups on a side chain read outwards from the residue. No end group written: not given here. *: point of attachment. C18 diacid = O=C(O)CCCCCCCCCCCCCCCCC(=O)*; γGlu = O=C(O)[C@H](CCC(=O)[*:2])N[*:1]; AEEA = NCCOCCOCC(=O)O; Aib = CC(C)(N)C(=O)O

rat CRF2R α receptor, sequence (P47866 20-411): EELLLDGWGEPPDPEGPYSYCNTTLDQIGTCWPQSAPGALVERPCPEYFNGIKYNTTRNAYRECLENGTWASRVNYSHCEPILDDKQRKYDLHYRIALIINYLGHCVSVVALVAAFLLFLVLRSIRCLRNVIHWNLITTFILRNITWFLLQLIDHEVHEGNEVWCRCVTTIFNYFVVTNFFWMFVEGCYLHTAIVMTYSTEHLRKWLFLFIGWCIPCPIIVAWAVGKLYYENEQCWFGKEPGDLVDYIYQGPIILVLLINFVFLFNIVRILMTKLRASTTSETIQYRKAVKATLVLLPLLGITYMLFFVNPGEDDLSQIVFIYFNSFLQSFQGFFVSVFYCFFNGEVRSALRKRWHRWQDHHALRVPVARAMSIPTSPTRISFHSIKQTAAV

B1: peptide of SEQ ID NO: 157 (peptide)
peptide: Ac-IVLSLD[dV]PIKLK([AEEA-AEEA-γGlu-C18 diacid])QILLEQARQK[Aib]QREQAEKNKQILEQV-NH2
SMILES: CC[C@H](C)[C@H](NC(C)=O)C(=O)N[C@H](C(=O)N[C@@H](CC(C)C)C(=O)N[C@@H](CO)C(=O)N[C@@H](CC(C)C)C(=O)N[C@@H](CC(=O)O)C(=O)N[C@@H](C(=O)N1CCC[C@H]1C(=O)N[C@H](C(=O)N[C@@H](CCCCN)C(=O)N[C@@H](CC(C)C)C(=O)N[C@@H](CCCCNC(=O)COCCOCCNC(=O)COCCOCCNC(=O)CC[C@H](NC(=O)CCCCCCCCCCCCCCCCC(=O)O)C(=O)O)C(=O)N[C@@H](CCC(N)=O)C(=O)N[C@H](C(=O)N[C@@H](CC(C)C)C(=O)N[C@@H](CC(C)C)C(=O)N[C@@H](CCC(=O)O)C(=O)N[C@@H](CCC(N)=O)C(=O)N[C@@H](C)C(=O)N[C@@H](CCCNC(=N)N)C(=O)N[C@@H](CCC(N)=O)C(=O)N[C@@H](CCCCN)C(=O)NC(C)(C)C(=O)N[C@@H](CCC(N)=O)C(=O)N[C@@H](CCCNC(=N)N)C(=O)N[C@@H](CCC(=O)O)C(=O)N[C@@H](CCC(N)=O)C(=O)N[C@@H](C)C(=O)N[C@@H](CCC(=O)O)C(=O)N[C@@H](CCCCN)C(=O)N[C@@H](CC(N)=O)C(=O)N[C@@H](CCCCN)C(=O)N[C@@H](CCC(N)=O)C(=O)N[C@H](C(=O)N[C@@H](CC(C)C)C(=O)N[C@@H](CCC(=O)O)C(=O)N[C@@H](CCC(N)=O)C(=O)N[C@H](C(N)=O)C(C)C)[C@@H](C)CC)[C@@H](C)CC)[C@@H](C)CC)C(C)C)C(C)C
In the case of B1, the “EC50 [nM], 0% HSA (cAMP, A7R5 cells)” value was found to be 1.14 nM.

B2: peptide of SEQ ID NO: 140 (peptide)
peptide: IVLSLD[dV]PIKLK([AEEA-AEEA-γGlu-C18 diacid])QILLEQARQK[Aib]QRAQAEKNKRILERV-NH2
modifications: N-terminus assumed
SMILES: CC[C@H](C)[C@H](N)C(=O)N[C@H](C(=O)N[C@@H](CC(C)C)C(=O)N[C@@H](CO)C(=O)N[C@@H](CC(C)C)C(=O)N[C@@H](CC(=O)O)C(=O)N[C@@H](C(=O)N1CCC[C@H]1C(=O)N[C@H](C(=O)N[C@@H](CCCCN)C(=O)N[C@@H](CC(C)C)C(=O)N[C@@H](CCCCNC(=O)COCCOCCNC(=O)COCCOCCNC(=O)CC[C@H](NC(=O)CCCCCCCCCCCCCCCCC(=O)O)C(=O)O)C(=O)N[C@@H](CCC(N)=O)C(=O)N[C@H](C(=O)N[C@@H](CC(C)C)C(=O)N[C@@H](CC(C)C)C(=O)N[C@@H](CCC(=O)O)C(=O)N[C@@H](CCC(N)=O)C(=O)N[C@@H](C)C(=O)N[C@@H](CCCNC(=N)N)C(=O)N[C@@H](CCC(N)=O)C(=O)N[C@@H](CCCCN)C(=O)NC(C)(C)C(=O)N[C@@H](CCC(N)=O)C(=O)N[C@@H](CCCNC(=N)N)C(=O)N[C@@H](C)C(=O)N[C@@H](CCC(N)=O)C(=O)N[C@@H](C)C(=O)N[C@@H](CCC(=O)O)C(=O)N[C@@H](CCCCN)C(=O)N[C@@H](CC(N)=O)C(=O)N[C@@H](CCCCN)C(=O)N[C@@H](CCCNC(=N)N)C(=O)N[C@H](C(=O)N[C@@H](CC(C)C)C(=O)N[C@@H](CCC(=O)O)C(=O)N[C@@H](CCCNC(=N)N)C(=O)N[C@H](C(N)=O)C(C)C)[C@@H](C)CC)[C@@H](C)CC)[C@@H](C)CC)C(C)C)C(C)C
On to B2, for which the “EC50 [nM], 0% HSA (cAMP, A7R5 cells)” value is 0.1 nM.

B3: peptide of SEQ ID NO: 131 (peptide)
peptide: IVLSLD[dV]PIKLK([AEEA-AEEA-γGlu-C18 diacid])QILLEQERQK[Aib]QRQQAEKNKQILAQV-NH2
modifications: N-terminus assumed
SMILES: CC[C@H](C)[C@H](N)C(=O)N[C@H](C(=O)N[C@@H](CC(C)C)C(=O)N[C@@H](CO)C(=O)N[C@@H](CC(C)C)C(=O)N[C@@H](CC(=O)O)C(=O)N[C@@H](C(=O)N1CCC[C@H]1C(=O)N[C@H](C(=O)N[C@@H](CCCCN)C(=O)N[C@@H](CC(C)C)C(=O)N[C@@H](CCCCNC(=O)COCCOCCNC(=O)COCCOCCNC(=O)CC[C@H](NC(=O)CCCCCCCCCCCCCCCCC(=O)O)C(=O)O)C(=O)N[C@@H](CCC(N)=O)C(=O)N[C@H](C(=O)N[C@@H](CC(C)C)C(=O)N[C@@H](CC(C)C)C(=O)N[C@@H](CCC(=O)O)C(=O)N[C@@H](CCC(N)=O)C(=O)N[C@@H](CCC(=O)O)C(=O)N[C@@H](CCCNC(=N)N)C(=O)N[C@@H](CCC(N)=O)C(=O)N[C@@H](CCCCN)C(=O)NC(C)(C)C(=O)N[C@@H](CCC(N)=O)C(=O)N[C@@H](CCCNC(=N)N)C(=O)N[C@@H](CCC(N)=O)C(=O)N[C@@H](CCC(N)=O)C(=O)N[C@@H](C)C(=O)N[C@@H](CCC(=O)O)C(=O)N[C@@H](CCCCN)C(=O)N[C@@H](CC(N)=O)C(=O)N[C@@H](CCCCN)C(=O)N[C@@H](CCC(N)=O)C(=O)N[C@H](C(=O)N[C@@H](CC(C)C)C(=O)N[C@@H](C)C(=O)N[C@@H](CCC(N)=O)C(=O)N[C@H](C(N)=O)C(C)C)[C@@H](C)CC)[C@@H](C)CC)[C@@H](C)CC)C(C)C)C(C)C
Take B3: the “EC50 [nM], 0% HSA (cAMP, A7R5 cells)” value was determined as 0.39 nM.

B4: peptide of SEQ ID NO: 142 (peptide)
peptide: IVLSLD[dV]PIKLK([AEEA-AEEA-γGlu-C18 diacid])QILLEQARQK[Aib]QREQAEKNKRILERV-NH2
modifications: N-terminus assumed
SMILES: CC[C@H](C)[C@H](N)C(=O)N[C@H](C(=O)N[C@@H](CC(C)C)C(=O)N[C@@H](CO)C(=O)N[C@@H](CC(C)C)C(=O)N[C@@H](CC(=O)O)C(=O)N[C@@H](C(=O)N1CCC[C@H]1C(=O)N[C@H](C(=O)N[C@@H](CCCCN)C(=O)N[C@@H](CC(C)C)C(=O)N[C@@H](CCCCNC(=O)COCCOCCNC(=O)COCCOCCNC(=O)CC[C@H](NC(=O)CCCCCCCCCCCCCCCCC(=O)O)C(=O)O)C(=O)N[C@@H](CCC(N)=O)C(=O)N[C@H](C(=O)N[C@@H](CC(C)C)C(=O)N[C@@H](CC(C)C)C(=O)N[C@@H](CCC(=O)O)C(=O)N[C@@H](CCC(N)=O)C(=O)N[C@@H](C)C(=O)N[C@@H](CCCNC(=N)N)C(=O)N[C@@H](CCC(N)=O)C(=O)N[C@@H](CCCCN)C(=O)NC(C)(C)C(=O)N[C@@H](CCC(N)=O)C(=O)N[C@@H](CCCNC(=N)N)C(=O)N[C@@H](CCC(=O)O)C(=O)N[C@@H](CCC(N)=O)C(=O)N[C@@H](C)C(=O)N[C@@H](CCC(=O)O)C(=O)N[C@@H](CCCCN)C(=O)N[C@@H](CC(N)=O)C(=O)N[C@@H](CCCCN)C(=O)N[C@@H](CCCNC(=N)N)C(=O)N[C@H](C(=O)N[C@@H](CC(C)C)C(=O)N[C@@H](CCC(=O)O)C(=O)N[C@@H](CCCNC(=N)N)C(=O)N[C@H](C(N)=O)C(C)C)[C@@H](C)CC)[C@@H](C)CC)[C@@H](C)CC)C(C)C)C(C)C
With B4, the “EC50 [nM], 0% HSA (cAMP, A7R5 cells)” value was 0.2 nM.
